Patent US20230399394A1 (SUNSHINE GUOJIAN PHARMACEUTICAL SHANGHAI, published 2023)
Positions count from the first letter of the chain named.

Key:
[1] = target: T1, IL-33 mutant protein V67A (human, UniProt O95760 112-270); experiment: ELISA as Example 9; row V67A against WT-3
T1 construct: Prokaryotic expression
T1 chain: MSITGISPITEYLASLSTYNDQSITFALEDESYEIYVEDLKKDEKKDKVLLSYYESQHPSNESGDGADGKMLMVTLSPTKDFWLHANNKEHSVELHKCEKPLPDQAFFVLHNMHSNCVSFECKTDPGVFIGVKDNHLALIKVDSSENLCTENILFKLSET
Experimental: (§1) SA protein was diluted to 2 μg/mL to coat ELISA plate at 100 μL/well overnight at 4° C. The plate was washed with PBST (PBS containing 0.05% Tween20) for 3 times, and blocked with 2% BSA prepared in PBS at 200 μL/well, at room temperature for 2 h. After the plate was washed twice with PBST, IL-33-his-biotin protein was diluted to 1 μg/mL with 1% BSA prepared in PBST, and was added to ELISA plate at 100 μL/well. The plate was incubated at room temperature for 1 h, and each monoclonal antibody was diluted with 1% BSA prepared in PBST in a 3-fold gradient. The highest concentration of antibody was 10 μg/mL, and the antibody was diluted for 12 gradients. Each diluted monoclonal antibody was added to ELISA wells with 100 μL/well, and the plate was incubated at room temperature for 1 h. Each sample was added to duplicate wells in parallel. The plate was washed with PBST for 3 times, and HRP-anti human IgG Fc secondary antibody prepared with PBST was diluted at an appropriate ratio, and was added to ELISA wells at 100 μL/well. […] Each reaction solution was shaken uniformly and OD450 nm was read on a microplate reader. The data was analyzed and EC₅₀ was calculated.
(§2) Subsequently, according to the experimental method of Example 9, the affinity of the above mutant proteins to 874F7-Hu1 was determined, and IL-33 proteins (WT-1, WT-2, WT-3, and WT-4) without any mutation were set as controls.

[2] = target: T2, IL-33 mutant protein K48A (human, UniProt O95760 112-270); experiment: ELISA as Example 9; row K48A against WT-2
T2 construct: Prokaryotic expression
T2 chain: T1 chain with K48A, A67V
Experimental: as §1, §2

[3] = target: T3, IL-33 mutant protein N61A (human, UniProt O95760 112-270); experiment: ELISA as Example 9; row N61A against WT-3
T3 chain: T1 chain with N61A, A67V
Experimental: as §1, §2

[4] = target: T4, IL-33 mutant protein K46A (human, UniProt O95760 112-270); experiment: ELISA as Example 9; row K46A
T4 construct: Prokaryotic expression
T4 chain: T1 chain with K46A, A67V
Experimental: as §1, §2

[5] = target: T5, IL-33 mutant protein V49A (human, UniProt O95760 112-270); experiment: ELISA as Example 9; row V49A against WT-2
T5 construct: Prokaryotic expression
T5 chain: T1 chain with V49A, A67V
Experimental: as §1, §2

[6] = target: T6, IL-33 protein without any mutation (WT) (human, UniProt O95760 112-270); experiment: ELISA as Example 9; row WT-2, the reference itself
T6 construct: Control of the alanine scan (four runs WT-1 to WT-4); also called WT-1; WT-2
T6 sequence: T1 chain with A67V
Experimental: as §1, §2

[7] = target: T7, Human IL-33-his (human, UniProt O95760 112-270, biotinylated with EZ-Link NHS-Biotin where used as IL-33-his-biotin); experiment: cell-based or functional assay
T7 sequence: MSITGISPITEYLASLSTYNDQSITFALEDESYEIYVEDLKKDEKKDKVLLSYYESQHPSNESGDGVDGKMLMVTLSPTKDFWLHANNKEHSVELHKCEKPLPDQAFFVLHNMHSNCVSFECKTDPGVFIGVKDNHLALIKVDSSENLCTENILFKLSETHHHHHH

[8] = target: T8, IL-33 mutant protein D65A (human, UniProt O95760 112-270); experiment: ELISA by the method of Example 9 with the IL-33 mutant protein on the plate, 874F7-Hu1 in serial dilution, HRP anti-human IgG Fc, absorbance 450 nm
T8 construct: Prokaryotic expression
T8 chain: T1 chain with D65A, A67V

B1: 874F7-Hu1 (antibody, human IgG4 S228P, kappa)
heavy: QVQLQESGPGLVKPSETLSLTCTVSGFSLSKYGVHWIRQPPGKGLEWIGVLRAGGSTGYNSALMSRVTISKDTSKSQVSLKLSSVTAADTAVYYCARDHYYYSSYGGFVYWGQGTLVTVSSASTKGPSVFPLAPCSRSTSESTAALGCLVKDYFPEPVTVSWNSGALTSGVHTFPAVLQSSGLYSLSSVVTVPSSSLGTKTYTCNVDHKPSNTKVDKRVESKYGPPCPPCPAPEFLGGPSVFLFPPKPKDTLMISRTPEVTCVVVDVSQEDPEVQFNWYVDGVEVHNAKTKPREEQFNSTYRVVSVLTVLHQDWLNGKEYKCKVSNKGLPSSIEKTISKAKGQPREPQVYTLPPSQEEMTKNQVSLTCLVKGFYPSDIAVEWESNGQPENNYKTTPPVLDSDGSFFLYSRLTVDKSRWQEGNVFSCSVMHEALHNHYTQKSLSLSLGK
light: DIQMTQSPSSVSASVGDRVTITCLASQTIGAWLAWYQQKPGKSPKLLIYAATRLADGVPSRFSGSGSGTDFTLTISSLQPEDFATYYCQQLDSSPYTFGQGTKVEIKRTVAAPSVFIFPPSDEQLKSGTASVVCLLNNFYPREAKVQWKVDNALQSGNSQESVTEQDSKDSTYSLSSTLTLSKADYEKHKVYACEVTHQGLSSPVTKSFNRGEC
notes: also called 874F7-Hul; humanized antibody 874F7-Hu1
Affinity decline ratio [1]: 0.6 fold | Affinity decline ratio [2]: 3.7 fold | Affinity decline ratio [3]: 0.8 fold | EC50 [4]: 0.23 nM | Affinity decline ratio [5]: > 25 fold | Affinity decline ratio [6]: 1 fold | IC50 of inhibition of IFNγ secretion by NK cells induced by IL-33 [7]: 0.742 nM | IC50 of inhibition of IL-5 secretion of KU812 cells induced by IL-33 [7]: 7.83 nM | IC50 of inhibition of IL-13 secretion of KU812 cells induced by IL-33 [7]: 5.22 nM | IC50 of the inhibitory effect on IL-6 expression in HUVEC cells induced by IL-33 [7]: 0.051 nM | IC50 of the inhibitory effect on the IFN-γ secretion of PBMC induced by IL-33 [7]: 0.85 nM | EC50 (read off the curve) [8]: ~2 nM

B2: 874F7 (antibody, V domains shown)
VH: QVQLKESGPGLVAPSHSLSITCNVSGFSLSKYGVHWIRQIPGRGLDWLGVLRAGGSTGYNSALMSRLSISKDSSKSQVFLKMNDLRTDDTAVYFCVRDHYYYSSYGGFVYWGQGTLVTVSA
VL: DIQMTQSPASQSASLGESVTITCLASQTIGAWLAWYRQQPGKSPQLLIYAATRLADGVPSRFSGSGSGTEFSFKINNLQAEDFVSYYCQQLDSSPYTFGGGTRLEM
notes: Murine hybridoma antibody purified on Protein G; also called murine antibody 874F7
IC50 of inhibition of IL-33-induced IL-6 expression in HUVEC cells [7]: 0.65 nM | IC50 of inhibition of IL-33-induced IL-8 expression in HUVEC cells [7]: 0.35 nM
